Results on 1 substance are retold here after patent publication US20230374151A1.

In experiment [1] the target is STnMUC1 peptide, biotinylated. Description: SPR (Biacore T200): biotinylated STnMUC1 peptide (35-1) captured on CAP chip, scFv as analyte. Background: SPR reads the build-up and loss of mass on a sensor chip optically.
For experiment [2], the target named is STnMUC1 peptide, biotinylated. Description: SPR (Biacore T200): biotinylated STnMUC1 peptide (35-1) captured on CAP chip, scFv as analyte, 1:1 fit, average.
Experiment [3] concerns the target TnMUC1 peptide 1 (partially glycosylated), biotinylated. The experiment is described as follows: SPR (Biacore T200): biotinylated TnMUC1 peptide 1 (96-1) captured on CAP chip, scFv as analyte, 1:1 fit, average.
Experiment [4] concerns the target TnMUC1 peptide (fully glycosylated), biotinylated. The experiment is described as follows: SPR (Biacore T200): biotinylated TnMUC1 peptide batch 65-1 captured on CAP chip, scFv as analyte, 1:1 fit, average.

Sequence of STnMUC1 peptide, biotinylated (main, as listed by the source): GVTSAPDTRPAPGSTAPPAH

A word on the Kd: it is a measure of binding affinity in units of concentration. Low values mean a tighter complex, high ones a looser complex. What is called koff is the first-order rate constant of dissociation. Lower therefore signals slow dissociation. As usually defined, the kon is a measure of how fast the partners come together. The low end stands for slow association, the high end for fast association. Take “murine 5E5 scFv protein (23-P1) obtained from Creative Biolabs”: the Kd in experiment [1] stood at 84 nM; in experiment [2], 84.1 nM; in experiment [3], 28.7 nM; in experiment [4] it was 26.6 nM. For the same substance, the koff in experiment [2] stood at 0.000282 s⁻¹; in experiment [3], 0.000803 s⁻¹; in experiment [4], 0.000845 s⁻¹. Further, the kon in experiment [2] was determined as 3350 M⁻¹ s⁻¹.
